Measured values from patent publication US20190359686A1 (INNOVATIVE TECHNOLOGIES IN BIOLOGICAL SYSTEMS SL, published 2019).
Where no end group is shown, it is not given here.

T1: F2R like trypsin receptor 1 (PAR2) (UniProt P55085 37-397)
T1 sequence (looked up): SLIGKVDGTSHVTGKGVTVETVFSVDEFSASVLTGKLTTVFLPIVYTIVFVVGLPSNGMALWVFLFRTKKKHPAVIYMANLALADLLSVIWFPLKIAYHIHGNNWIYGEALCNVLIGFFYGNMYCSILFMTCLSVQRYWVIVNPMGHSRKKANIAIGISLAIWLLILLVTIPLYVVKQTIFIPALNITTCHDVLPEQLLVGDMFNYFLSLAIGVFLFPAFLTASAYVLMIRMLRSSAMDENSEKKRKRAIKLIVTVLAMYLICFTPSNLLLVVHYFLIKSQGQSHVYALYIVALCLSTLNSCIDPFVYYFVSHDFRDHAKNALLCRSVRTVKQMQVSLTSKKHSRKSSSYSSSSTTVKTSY


Biological target: T1, F2R like trypsin receptor 1 (PAR2)
Test: cell-based or functional assay

EC50 SLIGRL-NH2 calcium assay | EC50 SLIGRL-NH2 ß-Arrestin assay | EC50 SLIGKV calcium assay | EC50 SLIGKV ß-Arrestin assay | Binder
4.06 µM | 12.7 µM |  |  | SLIGRL-NH2 [SLIGRL-NH2]
 |  | 1.67 µM | 4.83 µM | SLIGKV
